Results as given in the nanobody polyreactivity screen of Harvey et al. (2022).

Assay: yeast display, Sf9 membrane polyspecificity reagent, FACS + sequencing; frameworks hold sequencing errors
Outline: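 Galactose-induced (36–48 hours) yeast carrying a synthetic nanobody display library were exposed to 10% biotinylated, detergent-solubilized Sf9 membrane reagent at 4 °C for 1 hour. FACS followed streptavidin microbead enrichment, using low and high (top ~1%) gates for expression (anti-HA) and reagent binding (streptavidin). Colony PCR, MiSeq 2 × 250 sequencing and CDR-length filtering followed. Labels for polyreactivity reflect the gate of origin.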

Sequence: QVQLVESGGGLVQAGGSLRLSCAASGRTFYYNTMGWYRQAPGKERELVAAITRGGSTYYADSVKGRFTISRVNAKNTVYLQMNSLKPEETAVYYCNAPRYLRRYVKDHDYWGEGTQVTVSS
- polyreactivity (PSR sort gate): high polyreactivity

Sequence: QVQLVESGGGLVQAGGSLRLSCAASGFTFRWYTMGWYRPAPGKERELVAAISWSGTSTYYADSVKGRFTISRDNAKNTVYLQMNSLKPEDTAVYYCAAADFYYTGADDYWGQGTQVTVSS
- polyreactivity (PSR sort gate): high polyreactivity

Sequence: QVQLVESGVCLVQAGGSLRLSCASSGRILSTYAMGWYRQPPGKERELVAAISSGGSTYYADSVKGRFTISRDNAKHTVDLQMNSLKPEDTAVYYCNARKKRGYSRPAFDYWGQGTQVTVSS
- polyreactivity (PSR sort gate): high polyreactivity

Sequence: QVQLVESGGGLVQAGGSLRLSCAASGITFVRYTMGWYRQAPGKEWELVATITLSGGRTYYADSVQGRFTISRDNAKNTVSLQMTSLKPEDTAVYYCAASSRSRWSGYRYDYWGQGTQVTVSS
- polyreactivity (PSR sort gate): high polyreactivity

Sequence: QVQLVESGGGLVQAGGSLRLSSAASGGIFRYNAMGWYRQAPGKERELVAGISYRGGTTYYADSVKGRFTISRDNAKNTVYLQMNSLKPEDTAVYYCAAAASSPGGWFYYWGQVTQVTVSS
- polyreactivity (PSR sort gate): high polyreactivity

Sequence: QVQLVESGGGLVQAGGSLRLSCAASGFIFRRYVMGWYRQAPGKERELVAAISRGGSTYYADSVKGRFTISRDNAKNTVYLQMNSLKPEDTAVYYCNTPGGFVGDDYDYWGQGTQVTVSS
- polyreactivity (PSR sort gate): high polyreactivity

Sequence: QVQLVESGGGLVQAGGSLRLSCAASGRIFVRYDMGWYRQAPGKERELVAAISSSDGSTYYADSVKGRFTISRDNAKNTVYLQMNSLKPEDTAVYYCNADVSLDDYDYWGQGTQVTVSS
- polyreactivity (PSR sort gate): low polyreactivity

Sequence: QVQLVESGGGLGQAGGSLRLSCAASGSIRDSNAMGWYRQAPGKERELVAAITSGGSTYYADSVKGRFTISRDNAKNTVYLQMNSLKPEDTAVYYCAAAYLGYGAVQPSYEGGYWGQGTQVTVSS
- polyreactivity (PSR sort gate): low polyreactivity

Sequence: QVQLVESGGGLVQAGGSLRLSCAASGRTFTYYAMGWYRRAPGKERELVAAIRWTGDSTYYADSVKGRFTISRDNAKNTVYLQMNSLKPEHTAVYYCATQARWQYDGGIRWYYYWGQGTQVTVSS
- polyreactivity (PSR sort gate): high polyreactivity

Sequence: QVQLVESGGGLVQAGGSLRLSCAASGSIFGVNAMGWYRQAPGKERELVAAISSGGSTNYADSVKGRFTISRDNAKNTVYLQMNSLKPEDTAVSYCNTLWGHQYIGPYRTRECYYWGQGTQVTVSS
- polyreactivity (PSR sort gate): low polyreactivity

Sequence: QVQLVESWGGLVQAGGSLRISCAASGRISYGYAMGWYRQAPGKERELVAAISRSGGTTYYADSVKGRFTISRDNAKNTVYLQMNSLNPEDTAVYYCAAGDAYYTEALPFGDYDYWGQGTQVTVSS
- polyreactivity (PSR sort gate): low polyreactivity

Sequence: QVQLVESGGGLDQAGGSLRLSCAASGSIFESYAMGWYRQAPGKERELVAAITKRGGSTYYADSVKGRFTISRDNAKNTVYLQMNRLKPEDTAVYYCNASWPGIGPIYDYWGQGTQVTVSS
- polyreactivity (PSR sort gate): low polyreactivity

Sequence: QVQLVESGGGLVQAGGSLRLSCAASGRIFTWNAMGWYRQAPGKERELVASISRSGTSTYYADSVKGRFTISRDNAKNTVYLQMNSLKPEDTAVYYCNARTIYYYFRLSTPYNYWGQGTQVTVSS
- polyreactivity (PSR sort gate): high polyreactivity

Sequence: QVQLVESGGGLVQAGGSLRLSCAASGFIFFGEYVMGWYRQAPGKERELVAAITWSGGSTSYADSVKGRFTISRDNAKNTVYLQMNSLKPEDTAVYYCNAVSHFSTAIEFDYWGQGTQVTVSS
- polyreactivity (PSR sort gate): low polyreactivity

Sequence: QVQLVESGGGLVQAGGSLRLSCAASGRILSRYAMGWYRQAPGKERELVAAINKSGGSTYYADSVKGRFTISRDNAKNTVYLQMNSLKPEDTAVFYCNAVYYWYKGDYWGQGTQVTVSS
- polyreactivity (PSR sort gate): high polyreactivity

Sequence: QVQLVESGGGLVQAGGSLRLSCAASGRIFSKYAMGWYRQAPGKERELVASIRWRGDRTYYADSVKGRFTISRDNAKNTVYLQMNSLKPEDTAVYYCAVETLWQGSEYWVQGTQVTVSS
- polyreactivity (PSR sort gate): low polyreactivity

Sequence: QVQLVESGGGLVQAGCSLRLSCAASGRTLFKYAMGWYRQAPGKERELVAVISWGGGITYYADSVKGRFTISRDNAKNTVYLKMNSLKPEDTAVYYCATDSHARFYRYYWGQGTQVTVSS
- polyreactivity (PSR sort gate): low polyreactivity

Sequence: QVQLVESGGGLVQAGGSLRLSCAASGSIFEVDALGWYRQAPGKERELVAAITSSDITYYADSVKGRFTISRDHAKTTVYLQMNSLKPEDTAVYYCNGEPPYRVKRSDYWGQGTQVTVSS
- polyreactivity (PSR sort gate): low polyreactivity

Sequence: QVQLVESGGGIVQAGGSLRLICAASGFTFGYYTMGWYRQAPGKEREFVAAISGSGTNTYYADSVKGRFTISRDYAKNTVYLQMNSLKPEYTAVYYCNARWSLVSSGFDGGYWGQGSQVTVSS
- polyreactivity (PSR sort gate): high polyreactivity

Sequence: QVQHVESGRGLVQAGGSLRLSCAASGRIFQYYTMGRYRQAPGKERELVAAISRSGSSTYYADSVKGRFTISRDNAKNTVYLQMNSLKPEDTAVYYCAAVSEYYKGYDYWGQGTQVTVSS
- polyreactivity (PSR sort gate): high polyreactivity

Sequence: QVQLVESGGGLVQAGGSLRLSCAASGFIFHRYAMGGYRQAPGKERELVASITRSGGSTYYADSVKGRFTISRDNAKNTVYLQMNSLKPEDTAVYYCAAQLPSYYKYPRHDYWGQGTQVTVSS
- polyreactivity (PSR sort gate): high polyreactivity

Sequence: QVQLVESGGGLVQAGGILRLSSAASGSIFSNYAMGWYRQAPGKERELVAAINRSGGSTYYADSVKGRFTISRDNAKNTVYLQITSLKPDDTAVYYCNAVRLYYCAGGQFQYHFWGQGTQVTVSS
- polyreactivity (PSR sort gate): high polyreactivity

Sequence: QVQLVESGGGLVQAGGSLRLSCAASGRIFRYYAMGWYRQAPGKERELVARITNGAITNYADSVKGRFTISRDNAKNTVYLQMNSLKPEDTAVYYCAADPWYTLSVPSGYDYWGQGTQVTVSS
- polyreactivity (PSR sort gate): high polyreactivity

Sequence: QVQLVQSGGGLVQAGGSLRLSCAASGRIFGLNTMGWYRQAPGKERELVAAITSSAGSTYYADSVKGRFPISRDNAKNTVSLQMNSLKPEDTAVYYCAARVSYLGSFTSQRYYYWGQGTQVTVSS
- polyreactivity (PSR sort gate): high polyreactivity

Sequence: QVQLVESGGGLVQAGGSLRLSCAASGGTFSKYAMGWYRQAPGKEREFVAAITVSGGGTYYADSVKGRFTISRDNAKNPVYLQMNSLKPEDTAVYYCAADLAWTASDYWGHGTQVTVSS
- polyreactivity (PSR sort gate): low polyreactivity

Sequence: QVQLVESGGGLVQAGGSLRLSCAASGITLDYYAMGWYRQAPGKERELVASITSGGSTNYADSVKGRFTISRDNAKNTVYLQMNSLKPVDTAVYYCARDVNYPGSEGDYWGQGTQVTVSS
- polyreactivity (PSR sort gate): low polyreactivity

Sequence: QVQLVESGGGLVQAGGSLRLSCAASGSIFGFYAMGWYRQAPGKERELVAAITFSGGSTDYADSVKGRFTISRDNAKNTVYLQMNSLKPEDTAVYYCAARGYAIYSYWYYEPYDYWGQGTQVTVSS
- polyreactivity (PSR sort gate): high polyreactivity

Sequence: QVQLVESGGGLVQAGGSLRLSCAASGSTFYHYAMGWYRQAPGKERELVAAISWSGGSTYYADSVKGSFTISRDNAKNTVYLLMYSLKPEDTAVYYCNALLSGLTSTEYDYWGQGTQVTVSS
- polyreactivity (PSR sort gate): high polyreactivity

Sequence: QVQLVESGGGLVQAGGSLRLSCAASGFTLSDYAMGGYRKAAGTERELVAGISSGGSTNYADSVKGRFTISRDNAKNTVYLQMNSLKPEDTAVYYCATRGTFQSHIRSGYWGQGTQVTVSS
- polyreactivity (PSR sort gate): high polyreactivity

Sequence: QVQLVESGGGLVQAGGSLRLSCAASGSTFRGNAMGWYRQAPGKERELVAGISGSGGRTYYADSVKGRFTISRDNAKNTVYLQMNSLKPEDTAVYYCAARSTVYEYFYYRGWWEYYYWGQGTQVTVSS
- polyreactivity (PSR sort gate): low polyreactivity

Sequence: QVQLVESGGGLVQAGGSLRLSCPASGSTFRSNVMGWYRQAPGKERELVAAITSSGGSTYYADSVKGRFTISRDNAKNTVYLQMNSLKPEDTAVYYCAAVGYGWDPYKRLVRHSYDSWGQGTQVTVSS
- polyreactivity (PSR sort gate): low polyreactivity

Sequence: QVQLVESGGGLVQAGGSLRLSCADSGSIFRYNAMGWSRQAPGKERELVAAISGSGGSTYYADSVKGRFTISRDNAKNTVYLQRNSLKPEDTAVYYCNTRVYHYHYSYYPGGYWGQGTQVTVSS
- polyreactivity (PSR sort gate): high polyreactivity

Sequence: QVQLVESGGGLVQAGGSLRLSCAASGRTFIYYAMGWYRQAPGKERELVARIRANGVSTYYADSVKGRFTISRDNAKNTVYLQMNSLKPEDTAVYYCAKGYFPSQYEYWGQGTQVTVSS
- polyreactivity (PSR sort gate): high polyreactivity

Sequence: QVQLVESGGGLVQAGGSLRLSCAASGFIFNRYAMGRYRQAPGKERELVAAISSGGNTHYADSVKWRFTISRDNAKNTVLLQMNSLKPEDTAVYYCAKAFRHSTFFAPYDYWGQGSQVTVSS
- polyreactivity (PSR sort gate): low polyreactivity

Sequence: QVQLVESGGGLVQAGGSLRLSCAASVLIFYWYAMGWYRQAPGKERELVAAISSAGSTNYADSVKGRFTISRDNAKNTVYLQMNSLKPEDTAVYYCYARIAYRYSNYGYWGQGTQVTVSS
- polyreactivity (PSR sort gate): low polyreactivity

Sequence: QLQLVESGGGLVQAGGSLRLSCAASGIIFRYNTKGSYIQAPGKESELVAAIRTTGGSTYYADSVKGRFTISRDNAKNTVYLQMNSLKPEDPAVYYCAAVGFGRQGQEDYWGHGTQVTVSS
- polyreactivity (PSR sort gate): low polyreactivity

Sequence: QVQLVESGGGLVQAGGSLRLSCAASGFIFRRNAMGWYRQAPGKERELVAAISTRGGITYYADSVKGRFTISRDNAKNTVYLQMNSLKPDDTAVYYCAVVFVWGWPGYYWGQGTQVTVSS
- polyreactivity (PSR sort gate): high polyreactivity

Sequence: QVQLVESGGGLVQAGGSLRLSCAASGNTFIGNAMGWYRQAPGKERELVAAISWSTDSTYYADSVKGRFTISRDNAKNSVYLQMNSLKPEDTAINYCAADYSHLPIAWYYYWGQGTQVTVSS
- polyreactivity (PSR sort gate): low polyreactivity

Sequence: QVQLVESGGGLVQAGGILRLSCAASGRTFTPYALGWYRQAAGKERDLVAAISSRGGSTYYADSVKGRFTISRDYAKNTVDLQMNSLKPEDTAVYYCNATQYPAADRYTNNYGGGFDYWGQGTQVTVSS
- polyreactivity (PSR sort gate): low polyreactivity

Sequence: QVQLVESGGGLVQAGGSLSLSCAASGYTFYKYAMGSYIQAPGKERELVAAISSSGGSTYYADSVKGRFTISRDNAKNTVYLQMNSLKPEDTAVNYCAAYVYSNDYDYWGQGTQVTVSS
- polyreactivity (PSR sort gate): high polyreactivity

Sequence: QVQLVESGGGLVQAGGSLRLSCAASGSIFISSDRRLDRQAPGKERALVAAMRSRVGSTYYADSVKGRFTISRENGKNSDYFQMNSLKPEDTAVYYCKKDNAVDRRPWFQVTYVYWVQGTQVTVSS
- polyreactivity (PSR sort gate): low polyreactivity

Sequence: QVQLVESGGGLVQAGGSLRLSCAASGIIFLGYVMGWYRQAPGKERELVAAISSSGGRTYYADSVKGRFTISRDNAKNTVYLQMNSLKPEDTAVYYCATRTLQPGYTYPRYYWGQGTQVTVSS
- polyreactivity (PSR sort gate): high polyreactivity

Sequence: QVQLVESGGGLVQAGGSLRLSCASSGITFDYYDMGWYRQPPGKERELVAAISTGGGRTYYADSVKGRFTFSRDNAKNTVYLQMNSLKPEDTAVYYCAATYTRVPNRFYYWGQGTQVTVSS
- polyreactivity (PSR sort gate): high polyreactivity
